{"source": "patent US20260297170", "about": "(published 2026)", "binders": {"B1": {"name": "Murine 3F12E7 (antibody, V domains shown)", "VH": "GELQESGPELVKPGASVKISCKASGYSFTGYYMNWVKHSPEKSLEWIGEINPSTGGTSYNQKFKAKATLTVDKSSTTAYMQLKGLTSEDSAVYYCASGGYYEGFDYWGQGTTVTVSS", "VL": "DIELTQSPASLSASVGETVTGNIYSYLAWYQQKQGKSPQLLVYDAKTLADGVPSRFTGSGSGTQFSLKINSLQPEDFGSYYCQHFWNTPRTFGGGTKLEIK"}, "B2": {"name": "62K98H (antibody, V domains shown)", "VH": "QITLKESGPTLVKPTQTLTLTCTFSGFSLSTSGVGVGWIRQPPGEALEWLAVIHWNEANYYSPYLRSRLTITKDTSKNQMVLTVTNMDPVDTATYYCARGANSDSSGRLDAFDIWGQGTMVTVSS", "VL": "DVVMTQSPLSLPVTLGQPASISCRSSQSLIYSDGNTRLYWFHQRPGQSPRRLIYGVSNRDSGVPDRFSGSGSGTDFTLKISRVEAEDVGVYYCMQSTHWPHTFGQGTKLEIK"}, "B3": {"name": "85L117H (antibody, V domains shown)", "VH": "QVQLVQSGAELKRPGSSVKVSCRASGDTFKNYAITWVRQAPGQGLEWVGGIDPLVGVPNYTHRFQGRVTITADEPTSTTYMEFRDLTSDDTAVYYCARGVRDQHWSYFDSWGQGTLVTVSS", "VL": "QSVLTQPPSASGTPGQTVNISCSGATSNIGGGSVNWYQQLPGAAPRLLIHSDNERASGVPDRFSGSKSGTSASLAISGLQSEDEADYFCASWDDSLDGHVVFGGGTKVTVL"}}, "target": "rFGF2 (human, UniProt P09038)", "sequence (P09038 143-288)": "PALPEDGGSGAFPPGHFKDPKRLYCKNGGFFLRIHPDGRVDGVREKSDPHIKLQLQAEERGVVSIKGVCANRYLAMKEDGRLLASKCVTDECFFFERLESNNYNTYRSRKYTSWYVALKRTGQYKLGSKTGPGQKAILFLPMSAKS", "test": "SPR", "data": [{"binder": "B1", "values": [{"measurement": "Kd", "value": 0.413, "unit": "nM"}]}, {"binder": "B2", "values": [{"measurement": "Kd", "value": 9.1, "unit": "nM"}]}, {"binder": "B3", "values": [{"measurement": "Kd", "value": 17, "unit": "nM"}]}]}
